The values below come from patent US20240287172A1 (SCIRHOM, published 2024).

One assay concerns the target T1, hiR2-FL-S583A-T7 (human, UniProt Q6PJF5 1-856).
T1 sequence: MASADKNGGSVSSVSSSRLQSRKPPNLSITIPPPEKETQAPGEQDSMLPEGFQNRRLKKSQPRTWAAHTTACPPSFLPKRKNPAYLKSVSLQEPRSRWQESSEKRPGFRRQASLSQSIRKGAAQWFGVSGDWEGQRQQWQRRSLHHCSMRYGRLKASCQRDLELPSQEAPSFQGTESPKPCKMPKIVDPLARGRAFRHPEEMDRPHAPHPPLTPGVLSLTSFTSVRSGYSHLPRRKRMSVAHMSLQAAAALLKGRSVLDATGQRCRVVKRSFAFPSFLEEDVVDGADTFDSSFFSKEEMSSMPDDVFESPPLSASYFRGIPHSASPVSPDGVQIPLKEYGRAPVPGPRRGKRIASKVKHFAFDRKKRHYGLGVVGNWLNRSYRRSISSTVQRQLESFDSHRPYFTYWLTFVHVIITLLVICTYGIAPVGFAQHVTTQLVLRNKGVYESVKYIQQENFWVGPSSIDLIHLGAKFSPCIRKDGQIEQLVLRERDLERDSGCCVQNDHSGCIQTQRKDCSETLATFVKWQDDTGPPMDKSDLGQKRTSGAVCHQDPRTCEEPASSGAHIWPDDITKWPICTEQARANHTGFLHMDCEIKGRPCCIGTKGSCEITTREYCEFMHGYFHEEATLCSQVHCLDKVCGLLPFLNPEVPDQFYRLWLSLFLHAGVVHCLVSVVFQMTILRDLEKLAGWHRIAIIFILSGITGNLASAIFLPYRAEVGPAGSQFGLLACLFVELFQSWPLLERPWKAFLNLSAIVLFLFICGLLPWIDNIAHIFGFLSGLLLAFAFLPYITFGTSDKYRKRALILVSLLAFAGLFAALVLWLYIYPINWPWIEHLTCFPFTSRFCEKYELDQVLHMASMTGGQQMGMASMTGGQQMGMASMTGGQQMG
Description: FACS on MEF-DKO cells expressing the variant, 3 µg/ml antibody. Summed up:
(§1)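 Read-out is PE fluorescence by flow cytometry after two-step staining: antibody at 3 μg/ml for 1 hour on ice, then PE-labelled goat anti-mouse IgG F(ab′)2 (1:100) for 1 hour on ice.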

The target in another assay is T2, hiR2-FL-H585A-T7 (human, UniProt Q6PJF5 1-856).
T2 sequence: T1 sequence with A583S, H585A
The description is as above. Summed up: as §1

Residue numbers refer to the chain shown, from its start. Bounds are passed on as bounds.

B1: antibody 3 (antibody, V domains shown)
VH: QVTLKESGPGILQPSQTLSLTCSFSGFSLTTFAMGIGWVRQPSGKGLEWLAHIWWDGEKYNNPVLKSRLTISKDTSKNQVFLRIANVDTPDTATYYCARISSIYYIIDNWGQGTSVTVSS
VL: DIVLTQSPATLSVTPGHSVSLSCRASQSISNNLHWYQKKSHESPRLLIKYVSQSISGIPSRFSGSGSGTDFTLSINSVETEDFGMYFCQQSYNWPLTFGAGTKLELK
notes: mouse IgG, kappa light chain; also called clone #3; purified antibody 3
With B1, the “loss of binding vs wild type” value with hiR2-FL-S583A-T7 and with hiR2-FL-H585A-T7 was not below 30% in each case.
